Assay results: article PMC4164784, “4E-BPs require non-canonical 4E-binding motifs and a lateral surface of eIF4E to repress translation” (Nature Communications, 2014)
“Also recorded” adds a separate entry of the source.

T1: SHN-eIF4E (full length, WT) (Drosophila melanogaster, UniProt P48598-2 1-248)
T1 construct: eIF4E, Drosophila melanogaster; also called SHN-tagged eIF4E; SNH-tagged eIF4E; not shown: Strep-NusA-His (SHN), N-terminal, kept
T1 sequence (looked up): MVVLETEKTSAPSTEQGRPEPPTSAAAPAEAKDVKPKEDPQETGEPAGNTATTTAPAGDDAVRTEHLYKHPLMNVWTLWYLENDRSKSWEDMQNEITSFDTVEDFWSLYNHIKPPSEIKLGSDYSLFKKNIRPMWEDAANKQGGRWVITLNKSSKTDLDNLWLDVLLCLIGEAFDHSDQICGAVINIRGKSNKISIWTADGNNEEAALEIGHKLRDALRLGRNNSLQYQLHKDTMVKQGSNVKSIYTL

B1: GST-Thor (full length) (natural protein, Drosophila melanogaster, UniProt Q9XZ56 1-117, looked up)
chain: MSASPTARQAITQALPMITRKVVISDPIQMPEVYSSTPGGTLYSTTPGGTKLIYERAFMKNLRGSPLSQTPPSNVPSCLLRGTPRTPFRKCVPVPTELIKQTKSLKIEDQEQFQLDL
notes: Thor, Drosophila melanogaster; source: E. coli BL21 (DE3) STAR, coexpressed with SHN-eIF4E, complex purified on glutathione agarose
B2: Thor: Dm Thor full length (1–117), Q9XZ56, ortholog of 4E-BP1–3 (protein)
chain: B1 chain
modifications: left off: GFP, end not stated, kept
B3: 4E-T: Dm 4E-transporter (1–1010), Q8IH18; residues 1–58 in pull-down assays (protein)
chain: MDTSKISARYSKVDLLALRYEGKSRQRPQCSTRLELQTLGFWKINLNTAALTVSSAYSNQNKNRLSPEADNSSLICSNSSSISSRRAMRNRERANNYYQRFVPTDSLLISGEDKDKDALSHGQPYKLNIIDHRSISSSHLMPAFAKRRFVISKGSNSEESNEGINTCASKGKAASSPSRKGSELDTAETCLNFVQPDHDQCMSSSPTFSTSRQERRIGSGRLLPRSDNWDYKNEKTVEASIENEKETSPNGSGSTSSLNQHNQSQHRSRTFSGRLVERVPEVTDRRFQYDSKKSFDRQGINNRRISGKEPFSTQSRSKRGNSYLIHEEPEWFSAGPKSQLETIDLHGFEDLEKNEERSVTEDKNNQIQQLDKNLDAQASKDEASMRNSNDSLNFREVIPSDEKKHTDENVVTSIQNSTDLGHPNKNKPIQMQPSQNPESEFNFDAFLNMHPLDNSVLSNDETGKSDSKGTSRFSRWFRQKEAANNNEFPGFRESHAQEKRGIPSVKDLEAQMIKVDMRTDLINPIAGSLCQTVQMEKPIARDTEAFKKLLQQLGSQARQHHPCNDDCRTINLSNIANHVHLESKLHQKINDGHLQQPELSVNVPTMPTSSHVFLQKRLEIQHLIQRLHCGDVSHDFLEKELDNPSTPAATKDVIATVLNEYSHSKRNPVVTGDPNIFTQQSFLQPQSVHQHYSQELHSQNTANHTINQLISHGNSPTPLAFTPTSVLRKMTADKDTQSPSTYCQNPQYHVHQQNAKQVGTRENVLEPQLTATMAVQPRMILGGGNFAIGQNNQHLSPNMSQSRNQQVLKWTSGNMQMVHGKTFGRPILKGGLNSMPHSNSALPFTAHKIEMQPIHQPHLQQQQHRFKAVQSVESNLNTESVHQNITSPVGWHQLYMQHQQQHHHTRQQLSQRVIYGEMHRQSNPQMSPPVPGFSDSSDSGNVIKANSLTSPSYQRDERISSPTNQLAQWFSPELLAKASAGKLPLLNVNQALSLEEFERSIQHSSGVVHN
modifications: left off: GFP, end not stated, kept
notes: Dm 4E-transporter (1–1010), Q8IH18; residues 1–58 in pull-down assays

Tests used:
[1] = target: T1, SHN-eIF4E (full length, WT); experiment: pull-down; preassembled complexes of SHN-eIF4E (WT or II-AA) with GST-eIF4G, GST-CUP, GST-Thor or GST-4E-T (coexpressed, purified on glutathione agarose) recovered on Strep-Tactin beads; details: both partners purified
[2] = system: endogenous eIF4E; experiment: Coimmunoprecipitation / m7GTP pull-down with endogenous eIF4E in S2 cell lysates; assay type: cell-based, Drosophila melanogaster; details: western blot
Procedure: (§1) The coimmunoprecipitations assays were performed as previously described. For the pull downs using m^7GTP beads, 25 μl of immobilized γ-aminophenyl-m^7GTP (C10-spacer—Jena Bioscience) beads was added to the cell lysates and the mixtures were rotated for 1 h at 4 °C. The beads were washed three times with NET buffer (50 mM Tris (pH 7.4), 150 mM NaCl, 1 mM EDTA and 0.1% Triton X-100). The bound proteins were eluted with 2 × SDS–polyacrylamide gel electrophoresis (SDS–PAGE) sample buffer and analyzed by western blotting (WB). All of the WB experiments were developed with the ECL western blotting detection system (GE Healthcare) as recommended by the manufacturer. The antibodies used in this study are listed in Supplementary Table 2.
Thor and 4E-T) or HA-eIF4G and endogenous eIF4E in S2 cell lysates. The proteins were immunoprecipitated using a polyclonal anti-eIF4E antibody (α-4E). The pre-immune (Pre-I) serum and an HA-tagged version of MBP served as negative controls. The inputs (1%) and immunoprecipitates (10%) were analyzed by western blotting using anti-HA and anti-eIF4E antibodies. (b,c) The interaction of HA-tagged full length 4E-BPs (CUP, Thor and 4E-T) and eIF4G with endogenous eIF4E was analyzed by coimmunoprecipitation using anti-HA antibodies (b) or by pull-down using m7GTP-Sepharose beads (c). HA-MBP served as a negative control. The inputs (10%) and immunoprecipitates (30%) were analyzed by western blotting using anti-HA and anti-eIF4E antibodies. (d) Western blot showing the interaction of HA-Thor (full-length either wild-type or mutants) with endogenous eIF4E in S2 cells. The proteins were immunoprecipitated using anti-HA antibodies and analyzed as described in (b,c). (e) Western blot showing the interaction of HA-4E-T (residues 1–511, wild-type or mutants) with endogenous eIF4E. The proteins were immunoprecipitated using anti-HA antibodies and analyzed as described in (b,c). The size markers (kDa) are shown to the right of each panel. Mutants are described in Supplementary Table 1.

[3] = system: eIF4E II-AA (lateral surface mutant); experiment: Coimmunoprecipitation with HA-eIF4E II-AA in S2 cells; assay type: cell-based, Drosophila melanogaster; details: HA-eIF4E II-AA vs WT, western blot
Procedure: as §1

[4] = system: eIF4E II-AA mutant (full length); experiment: GST/MBP pull-down of full-length eIF4E II-AA mutant, coexpressed in E. coli; assay type: binding, Drosophila melanogaster; details: recombinant CUP (311–440), Thor (full length), 4E-T (1–58) or eIF4G (578–650), WT or mutant, SDS–PAGE
Procedure: For the pull-down assays shown in Fig. 3 and Supplementary Fig. 6a, the full-length His6- or SHN-tagged eIF4E (WT or II-AA mutant) was coexpressed with GST or MBP-tagged protein fragments, including CUP (residues 311–440), Thor (full length), 4E-T (residues 1–58) or eIF4G (residues 578–650) in E. coli BL21 (DE3) STAR cells in autoinducing medium[44] overnight at 20 °C. The cells were resuspended in lysis buffer (20 mM Tris–HCl (pH 7.5), 100 mM NaCl, 1 mM DTT) supplemented with EDTA-free protease inhibitor (Roche) and lysed by sonication. The cleared lysates were incubated for 1 h with 20 μl of Protino Glutathione Agarose 4B beads (Macherey-Nagel) or amylose resin (New England Biolabs). The beads were washed three times with lysis buffer, and the bound proteins were eluted with lysis buffer containing 25 mM L-glutathione or 25 mM maltose for 15 min. The proteins were analyzed by 10–15% SDS–PAGE followed by Coomassie blue staining.

[5] = system: firefly luciferase (F-Luc) reporter in S2 cells; experiment: Translation repression assay, F-Luc reporter in S2 cells; assay type: cell-based, Drosophila melanogaster
Procedure: S2 cells were transfected in 6-well plates using Effectene transfection reagent (Qiagen) according to the manufacturers protocol. The transfection mixtures contained: 0.1 μg of F-Luc reporter plasmid (F-Luc-V5), 0.3 μg of control RNA reporter, and increasing amounts of plasmids expressing HA-CUP (fragment 1–402; 0.05–0.2 μg) and HA-Thor (full length, 0.1–0.5 μg). The plasmids expressing the corresponding mutants or the HA peptide control were transfected at the highest concentration. In all the experiments, the cells were collected three days after transfection. The F-Luc activity was measured using the Dual-Luciferase reporter assay system (Promega). The northern blotting was performed as previously described. The F-Luc mRNA levels were determined by northern blotting and were normalized to those of the control RNA. The normalized F-Luc mRNA levels were then used to normalize the F-Luc activity, to obtain translation efficiencies.

[6] = system: endogenous eIF4E and HA-tagged 4E-BPs in S2 cells; experiment: Immunofluorescence localization in S2 cells; assay type: cell-based, Drosophila melanogaster; details: for nuclear accumulation of endogenous eIF4E upon LMB (in words): S2 cells expressing 4E-BP or mutant; for nuclear accumulation of endogenous eIF4E upon LMB (in words) / nuclear accumulation of 4E-BP upon LMB (in words): LMB 100 nM, 12 h; for localization of endogenous eIF4E (in words): S2 cells overexpressing 4E-BP or mutant; for localization of endogenous eIF4E (in words) / localization of the 4E-BP (in words): −LMB; for nuclear accumulation of 4E-BP upon LMB (in words) / localization of the 4E-BP (in words): S2 cells; for localization of the 4E-BP (in words): steady-state
Procedure: S2 cells expressing HA-tagged versions of CUP, Thor and 4E-T or the indicated mutants were treated with Leptomycin B (100 nM; Sigma) or methanol as a control for 12 h. After the LMB treatment, the cells were allowed to adhere to poly-D-lysine–coated coverslips for 15 min and were fixed with 2% paraformaldehyde for 10 min. The cells were then permeabilized with 0.1% Triton X-100 in PBS (10 min) and stained with affinity-purified monoclonal anti-HA (Covance 1:1,000) and polyclonal anti-eIF4E (1:2,000) antibodies in PBS containing 1% BSA for 1 h. Alexa Fluor 594-labeled goat anti-rabbit and 488-labeled anti-mouse antibodies (Invitrogen) were used at dilutions of 1:1,000 and 1:2,000, respectively. The cells were mounted using Fluoromount-G (Southern Biotech). The images were acquired at room temperature using a confocal microscope (TCS SP2; Leica) that was fitted with a Plan-Apochromat × 100 NA 1.40 oil immersion objective and a series of three photomultipliers (Hamamatsu Photonics) controlled with the Leica confocal software (version 2.61). The images were prepared using Photoshop (Adobe). […]
Thor) independent experiments. […] Confocal fluorescent […]
micrographs of fixed S2 cells expressing HA-4E-T and GFP-Tral. The localization of HA-4E-T was determined by indirect immunofluorescence using an anti-HA antibody. The merged pictures show the HA signal in red and the GFP-Tral signal in green. Bar: 5 μm.

| Molecule | binding result [1] | interaction with endogenous eIF4E (in words) [2] | association with eIF4E II-AA (in words) [3] | binding to eIF4E II-AA mutant (in words) [4] | repression of F-Luc reporter expression (in words) ([5]; coexpression (HA-CUP 1–402 0.05–0.2 μg, HA-Thor 0.1–0.5 μg plasmid; mutants at highest), 3 days, F-Luc activity normalized to mRNA, three independent experiments) | nuclear accumulation of endogenous eIF4E upon LMB (in words) [6] | localization of endogenous eIF4E (in words) [6] | nuclear accumulation of 4E-BP upon LMB (in words) [6] | localization of the 4E-BP (in words) [6] | effect on mRNA upon overexpression (in words) ([5]; overexpression, C.I. and E.I., unpublished results) |
| --- | --- | --- | --- | --- | --- | --- | --- | --- | --- | --- |
| B1 | binds | – | – | – | – | – | – | – | – | – |
| B2 | – | interacted with endogenous eIF4E | disrupted the association | pulled down comparable amounts of WT and mutant eIF4E | inhibited the expression of the F-Luc reporter in a dose-dependent manner | endogenous eIF4E accumulated in the nucleus | evenly distributed in the cytoplasm | partial nuclear accumulation | distributed evenly throughout the cytoplasm | – |
| B3 | – | interacted with endogenous eIF4E | disrupted the association | pulled down comparable amounts of WT and mutant eIF4E | – | endogenous eIF4E accumulated in the nucleus | detected in P-bodies | nuclear accumulation | localizes to P-bodies; also recorded: accumulated in cytoplasmic foci, which correspond to P-bodies | caused mRNA degradation when overexpressed |
